# Results published in patent US7964369.
# B1: USP8 expressed in E. coli (pET28) (protein)
# chain: MPAVASVPKELYLSSSLKDLNKKTEVKPEKTSTKNYIHSAQKIFKTAEECRLDRDEERAYVLYMKYVAVYNLIKKRPDFKQQQDYYLSILGPANIKKAIEEAERLSESLKLRYEEAEVRKQLEEKDRREEEQLQQQKRQEMGREDSGAAAKRSVENLLDSKTKTQRINGEKSEGAAAAERGAITAKELYTMMMDKNTSLIIMDARKIQDYQHSCILDSLSVPEEAISPGVTASWIEANLSDDSKDTWKKRGSVDYVVLLDWFSSAKDLLLGTTLRSLKDALFKWESKTVLRHEPLVLEGGYENWLLCYPQFTTNAKVTPPPRSRAEEVSVSLDFTYPSLEEPVPSKLPTQMPPPPIETNEKALLVTDQDEKLRLSTQPALAGPGAAPRAEASPIIQPAPATKSVPQVDRTKKPSVKLPEDHRIKSENTDQSGRVLSDRSTKPVFPSPTTMLTDEEKARIHQETALLMEKNKQEKELWDKQQKEQKEKLRREEQERKAGKTQDADERDSTENQHKAKDGQEKKDSKQTKTEDRELSADGAQEATGTQRQSKSEHEASDAKVPVEGKRCPTSEAQKRPADVSPASVSGELNAGKAQREPLTRARSEEMGRIVPGLPLGWAKFLDPITGTFRYYHSPTNTVHMYPPEMAPSSAPPSTPPTHKVKPQVPAERDREPSKLKRSYSSPDITQALQEEEKRRPAVTPMVNRENKPPCYPKAEISRLSASQIRNLNPVFGGSGPALTGLRNLGNTCYMNSILQCLCNAPHLADYFNRNCYQDDINRSNLLGHKGEVAEEFGIIMKALWTGQYRYISPKDFKVTIGKINDQFAGSSQQDSQELLLFLMDGLHEDLNKADNRKRHKEENNEHLDDLQAAEHAWQKHKQLNESIIVALFQGQFKSTVQCLTCRRRSRTFEAFMYLSLPLASTSKCTLQDCLRLFSKEEKLTDNNRFYCSHCRARRDSLKKIEIWKLPPVLLVHLKRFSYDGRWKQKLQTSVDFPLENLDLSQYVIGPKNSLKKYNLFSVSNHYGGLDGGHYTAYCKNAARQRWFKFDDHEVSDISVSSVRSSAAYILFYTSLGPRITDVAT
# Molecular target: bacterial recombinant GST-GRAIL fusion protein, Q9D304
# Sequence (Q9D304 whole entry, looked up, the tested form may be a part): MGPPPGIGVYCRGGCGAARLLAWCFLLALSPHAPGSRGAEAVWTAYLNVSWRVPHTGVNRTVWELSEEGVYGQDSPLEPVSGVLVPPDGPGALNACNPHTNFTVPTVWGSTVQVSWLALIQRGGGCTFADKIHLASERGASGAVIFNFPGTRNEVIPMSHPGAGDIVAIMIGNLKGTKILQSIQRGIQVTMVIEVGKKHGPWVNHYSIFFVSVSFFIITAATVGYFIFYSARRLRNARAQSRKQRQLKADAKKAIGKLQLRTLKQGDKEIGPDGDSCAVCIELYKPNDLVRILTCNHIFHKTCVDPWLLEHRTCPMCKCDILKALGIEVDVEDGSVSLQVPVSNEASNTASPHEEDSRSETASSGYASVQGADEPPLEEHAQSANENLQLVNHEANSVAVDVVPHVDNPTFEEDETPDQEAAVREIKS
protein,measurement,value
B1,de-ubiquitination of auto-ubiquitinated GST-GRAIL in vitro,USP8 is capable of de-ubiquitinating GRAIL in vitro
